The source of these data is paper PMC4345318, “Dynamic association of PfEMP1 and KAHRP in knobs mediates cytoadherence during Plasmodium invasion” (Scientific Reports, 2015).

Assay [1] concerns the target VARC (acidic terminal segment, cytoplasmic domain fragment of PfEMP1, comprising VARC A and VARC B). Put plainly: ITC (GE MicroCal ITC200). To be noted: pH 6.9, 298 K, 0.013 M (no added salt), 10 mM sodium phosphate.
Assay [2] addresses T1, VARC (cytoplasmic acidic terminal sequence domain of P. falciparum erythrocyte membrane protein-1, PfEMP1) (Plasmodium falciparum, UniProt Q8IAK2 2467-2757).
T1 construct: also called ATS; cytoplasmic domain of PfEMP1; source: E. coli BL21 (DE3) CodonPlus, purified (Ni-NTA, gel permeation chromatography on Superdex 75)
T1 sequence: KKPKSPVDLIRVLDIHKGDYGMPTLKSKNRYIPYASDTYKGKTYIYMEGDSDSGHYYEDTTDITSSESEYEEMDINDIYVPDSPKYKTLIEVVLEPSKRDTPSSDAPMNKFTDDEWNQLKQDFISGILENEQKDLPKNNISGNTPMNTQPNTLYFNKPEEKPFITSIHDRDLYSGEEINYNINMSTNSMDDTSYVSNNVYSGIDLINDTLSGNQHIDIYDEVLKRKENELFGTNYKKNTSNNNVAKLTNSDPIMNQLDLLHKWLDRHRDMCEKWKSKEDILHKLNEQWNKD
Put plainly: ITC; 0.7 mM K2A1 in the syringe, 0.07 mM VARC in the cell; 298 K; 10 mM sodium phosphate pH 6.9, 5 mM DTT, no additional salt; 40 injections of 1 μL; fitted to a sequential four site model, and to a simple hetero-association model (A + B <-> AB) in SEDPHAT for an apparent global Kd. To be noted: both partners purified. For orientation: ITC needs no label: the signal is the heat of the interaction.

In assay [3] the target is T1, VARC (cytoplasmic acidic terminal …). Put plainly: NMR titration; 2D [15N,1H] HSQC of 10 μM 15N-labelled K2A1 with unlabelled VARC added at 1:1, 1:2.5, 1:5, 1:7.5 and 1:10 molar ratios; 278 K; 10 mM sodium phosphate pH 6.2, 5 mM DTT, no additional salt (ionic strength 0.013 M); Kd by fit of amide chemical shift perturbations; the 1:5 complex also measured at 20, 50, 100 and 150 mM NaCl. Particulars: both partners purified.

Turning to “K2A1 (first tandem repeat of the K2A lysine-rich region of knob-associated histidine-rich protein, KAHRP)”, in assay [1], the “Kd (first value, four-site sequential model)” value is 9.8 µM; the “Kd (fourth value, four-site sequential model)” value amounted to 9.6 µM; the “Kd (second value, four-site sequential model)” value amounted to 10.3 µM; the “Kd (third value, four-site sequential model)” value turned out to be 10.1 µM.

B1: K2A1 (first of the two tandem repeats of the K2A region of knob associated histidine rich protein, KAHRP) (domain or fragment)
chain: KHHSSKKHEGNDGEGEKKKKSKKHKDHDGEKKKSKKHKDNEDAESVKSKK
notes: also called truncated K2A; source: E. coli BL21 (DE3) CodonPlus, purified (Ni-NTA, gel permeation chromatography on Superdex 75); not shown: His6, C-terminal, kept
As for B1, in assay [2], the Kd was 32.1 µM, the “Kd of site 1 (four-site binding model)” value amounted to 9.8 µM, the “Kd of site 2 (four-site binding model)” value was 10.3 µM and the “Kd of site 3 (four-site binding model)” value was determined as 10.1 µM. The “Kd of site 4 (four-site binding model)” value in assay [2] amounted to 9.6 µM. Further, the Kd in assay [3] lay in the range of 7 to 15 µM.
